Drawing on a protein production outcome set (Wang et al. 2014), this text covers protein production for 20 sequences.

A short description of the series: label from the status in PepcDB records.
Regarding “MNFLPPTPPPPDPVGWKLPRGSLARHLVLRLMPPLLLLVLLDLAATWVITHKIDMSIWMLEDFFWLMVVGQIVLIALFTGVIIRGVRSGLRSVNHLAEEIRQRSIDDMQPMEVAGLPAEIAPLVTHINDLLGRLDASLAAQRRFIGHAAHQLRTPLSGLRLESELMLARPLPEDVRMRAERIKAVSDRMIRLGQQLLVMARADPDARPQDRFIRLDLCEWVRASGAEWIPRVRAAQAEIDLVAPEQPVWIDGDPLLLDEMLGNLIDNALRYGKPRGRICLTIDVNPPALIIEDDGPGISPQERDSVFEAFYRAPDAKAGGSGLGLAIVREIAHAHGAWWKLSSRPEYAGTRLSVVFPGPRIGTQLTRQERAS”, the protein production result is on record as “failed”.

For the sequence “DPLDNLVAPTAAAAAAAAGKKKQPSAAAAAATKTTANKVANSNNKANAGSNIGGPNAKKPNQAEKENKPNNALNKTDGKKFTPSADNKQQQFNNNASSNYK”, the protein production entry is listed as “failed”.

Take “MVTQEQRRRQLAREKFLRQQQRRTSARRKARMRNAAIASVLGVILIGSVALYTTGVVLGDDDDKTNAGAEVTPSASAPSKAPDPCDKPADGKVKTQTWKKEPAMTVDKSAKYTMKLATTCGDIDLALKADAAPHTVNSFDFLAGKGYFDHTKCHRLTTEGIYVLQCGDPTAQGNGGPGYNIPDENLKDKSLKDNVYPAGTVAMANTGQPDSGGSQFFLVYQDSQLPPSYTPFGTVSKEGMTVLKKIASAGAQPADPTTGNTAPNATVVIDKATVSKS”: the protein production entry is “failed”.

For “YRALYPFEARNHDEMSFNSGDIIQVDEKTVGEPGWLYGSFQGNFGWFPCNYVEKMPSSENEKAVSPKKALLPPTVSLSAT”, the protein production result is given as “not failed”.

As for “MSAISPNGAEEHPIGLTLNGQRLTLQVNPWTTLLDLLREQLDLVGTKKGCDHGQCGACTVLRDGKRVNACLTLAIMCDGAELVTIEGLASGDVLHPMQRAFITHDAFQCGYCTPGQICSAVGLAREGRAYTREAIREQMSGNLCRCGAYSNIVAAVEEALPLMTDLAPPQRGPNP”, the protein production entry was “failed”.

As to “MVVANDLSSKILPRVLIVSRRTLRKNKYVDFVGEYHLDLIVSSGAVPVIVPRVNGIHSMLQSFEPIHGVLLCEGEDVDPSLYADDELSDLSPEDMEEIKKAHAEDMTIDREKDSIELTLARLCLERNIPFLGICRGSQILNVAAGGTLYQDIDKELGTTMTTTNHIDYDNYDGHRHEARIVEETPLHKLFEEMEIMVNSYHHQGVKRLAQRFVPMAYAPDGLIEGFYDPNRYDPKEGQFLMGLQFHPERMRLPGSDEFDYPGCALVYQEFVKAVIAFQKKQVNATQVEMKRKTTTLVKSFSQAEFLEVRDSFVLHTYRLYVLPLNIGFSDMAE”, the protein production entry is recorded as “failed”.

Turning to “MNTLLLTAGRVLLALYFLIPGIMKFVSWDMHIQLMEKHEMPFVPVLLGLAGVFQIGAAILLIANRFTWIVALLLAGLVLVINVSLHDFWNYSGMEGAHEMQNFIKNLGIFAGLLVLSGHSMPECCKTKKKS”, the protein production entry is “failed”.

Regarding “MSKGTLFTIAVTPKIPPRLARLEDLANDLWYSWDRATRSLFSRLDPSLWGAVGHNPKAFLKRVDETLLLKAAEDQVFLANYNSIVSAYDYYHSETLWNGIDASLNPSDKIAYFCFEFGFHESFPIYSGGLGILAGDHCKAASDLRLPLIGIGLLYRQGYFFQTIDNQGNQQVIYADSDFSDLPVAPVLREDGSEVRIKVELLQRPVAIKVWRAKIGHVSLYLLDTDLPENSPGDRDITHQLYGGDRVMRIEQEIVLGVGGIRALREMGIEPTIWHINEGHAAFMMLERIRGHVQQGLDFPAALEAVAASTVFTTHTAVPAGHDHFSDDMMNAYFEPFYRDLKITREDFLALGRVPGSDDFNMTDLAIRASRYQNGVSKIHGNVSARICKDVWPQIEPEENPMSYITNGVHVPTFLAQEWADLFDRYLGYEWRNNMCDTEYWSRIDTIPDHLFWSVRQTLKSQMFYGIRARLTTQNARNHGSEAHLDRLLRFTDPINPNILTLGFGRRFATYKRATLLFEDLDWLRRIMLDQEHPVMIVFAGKAHPADVPGQDLIRRVSEIARMPEFEGQILLVEDYDLRLARRLVAGVDVWINSPVYPLEASGTSGMKAGINGTINLSVLDGWWGEGYDGKNGWAIKPGPENMDAVRRDKEESKDFYETLQDHVVPLYYNRDKLGYSSGWVKMAKNSMKSLLPRYNATRMITEYTMKFYLPAKKQGALYAADDFSNARKIAAWKAFVREAWPGVTIRRLDKPFSQISFGEAVDFRVAVRLNGLHPEDVVVELLICRRLKKTTLCSFKHVRFQFRGIEEESAEHLFELDHTPDLCGKLDYYIRVYPYHALLTHPFEMGMMVWL”, the protein production result was “failed”.

Regarding “MTHVEDDKEFKEKPLVQVLSDDDSEVKEAKDGGGEEVTGGDGEGEANEEDLGTEYLVRPVGEVEDEDDASDFDPEENGLDEEEGDEEIEEDDVDEDISLSAGKSEPLSKRKRVAKDHSEQGDVTGDNIRPSKR”, the protein production result is “failed”.

Turning to “MRGLSLSPVVLPEVRREAGVELRKARLEDVDAIYWLIRYWAEKGLMLVRSHSHLYENIRDFWVLEDEDGQIVGTVALHVLWRDLAEIRGLAVHPTRQGQGLGRWLVLGAEREARDLGLPRVFAWTLQVNFFRALGYRVTSR”, the protein production entry is recorded as “failed”.

As to “AVGSGSEGFIVRLPAALLFKEGGIEVENSDGFLFVKRMAEIVNRLPKDVHVEVRGHTDTLPLPAQAPQDKLELTAKRALSVSKLLVKEGIDPKRITTVGRGDQDPLTHARTPEAQESNRRVDIYLYPKE”, the protein production result is on record as “not failed”.

On to “MDQMEKITTGVSYTTSAVGTGYWFLQLLDRVSPSQWAAIGVLGSLLFGLLTYLTEVYWQ”, for which the protein production result is on record as “failed”.

As for “MNKPATIDFATATAIQIPAATAQAEALHDLVPGEARDSLLAVHDVLRRELPQGRLAIYEAGGGSCSVLPPELLSRSQVTVVDIDEDQVRNNTYADEAIRGDVQTYRFGGETFDLVICYNVIEHLPNVDAALLNFRDALKRGGMILIGAPNPRSLSGVVTKYSPHWFHVWFYRHIRGIRDAGLPGEPPFPTFFHPLVTLPRLEAFAAANGLDMTYRREVESPRYPEMRRRKPLFAALVDAGAAMLNAVLPRGTDVRRGDYHVILRKS”, the protein production result is “failed”.

With “MSISDNSRDQLGELPAGRPLQSDFDNDLDYPRLGSVTFRRGTLTENQQTMWDEKWPELGRVLEDELIDVDAWFGREGAKTIVEIGSGTGTSTAAMAPLEADTNIVAVELYKPGLAKLMGSVVRGEIDNVRMVRGDGIEVLNRMFADGSLDGIRVYFPDPWPKARHNKRRIIQSGPLNLFAKKLKPGGVLHVATDHADYAEWINELVEVEPLLEYKGWPWEECPQLTDRQVITKFEGKGLEKDHVINEYLWQKVQN”, the protein production result is reported as “failed”.

As for “MSSLKGHPKGLYLIFATSTAERFSYYGMRAIFILFLTQALLFDKEAAASIYGSYTGLVYLTPLIGGYIADKYWGIRRSVFWGAVMMAVGQFLMFMSASSLNNTDLAHWLMYGGLGFMILGNGCFKPTVSSLVGQLYEPGDKRLDAAYTIFYMGVNVGSFAAPLICGFLGDTGNPQDFKWGFLASGIMTLFTVVLFETQKNKYLFSPSGEPIGIVPDARREKKEDKAEHISHPKMDKRTKVRNIIIITALTVALIAFFSYAFSDDWISVGIFTACIVFPVLILLDGSLTKVERSRIFVIYIVAFFVIFFWAAYEQAGASLTLFASEQTDRSIFGWEMPASWFQSFNPLFVVILAYIMPGIWGFLNKRNMEPASPTKQAIGLLLLSLGYLFICFGVKDAIPGVKVSMIWLTGLYFIHTMGEIALSPIGLSMVNKLSPLRFASLMMGIWYLSTATANKFAGMLSGLYPEDGKVKSILGYQIATMYDFFMLFVIMSGVASLILFLLSKKLQKMMHGVE”, the protein production result is “failed”.

For the sequence “KRQKIHLGDRSQKCSKCGIIFIRRSTLSRRKTPMCEKCRKDSCQEAALNKDEGNESGKKT”, the protein production entry is on record as “not failed”.

Consider “MVWPHLYFSELEAQHIMTSIISSSWFKFSVVAASITGIMMLSGCAKKEAQDLTTLNIGFQKYGLLPIVKERGELDKILKKEGITIKWVEFPAGPQLLEGLNVGSVVFGEAGEAPPIFAQAANSNLVYVANQPAAPNAEALIVQKNSSVHSVQDLKGKRIALNKGSNVHYLLLKLLEKNHLTLNDIQVVYLPPADARAAFEKGAVDAWVIWDPFFAAAEQQIGARVIATGQDLVSNHQFYLADRKFAQNHPEVLKTLVKELNQSTEWVKTHQDDAAKLLEKPTALDFNILKTSISRMGFGVTPLSNTVINEQQQVADAFYQQKLIPQPLKIQDAILKGEIK”, for which the protein production entry is listed as “failed”.

Regarding “MRWITRPGWPGNLLALAAGGLTTLALAPFDFWPLVLVSVAMFYLGLRELSPRQALARGWCYGFGLYGAGTSWIYVSIHTYGGASALLAGLLMLLFIAAIALFFALPAWVWARWLRRNEAPLADSLAFAALWLWQEAFRGWFLTGFPWLYSGYSQLDAPLAGLAPVGGVWLISFALGLTAALLCNLHRLRARKSFLAMGVLLLLAPWVAGLALKDHAWTSPSGPPLKVAAMQGNIEQSMKWDPQKLNDQLALYRDMTFRSQQADLIVWPETAVPVLKESAEGYLSMMGKFAADRGAALITGVPVREPTGRGEYSYYNGITVTGQGDGTYFKQKLVPFGEYVPLQDLLRGLISFFDLPMSDFARGPNDQALLQAKGYHIAPFICYEVVYPEFAAGLSAQSDLLLTVSNDTWFGTSIGPLQHLQMAQMRALEAGRWMIRATNNGVTALIDPFGRITVQIPQFERGVLYGEVVPMHELTPYLHWRSWPLAIVCLLLFGWALLAARISKTV”, the protein production entry is reported as “failed”.

For the sequence “MTENSRKTATELFEFLDGLGISHTTKQHEPVFTVAESQSLRDLIPGGHTKNLFVKDKKDQYFVLTVEENAVVDLKSVHKTIGAASRVSFGRPEKMLEYLGVVPGSVTVFGAINDTARQVTFVLDSDLLENELVNGHPLSNDQTTTIASKDLIRFLEATGHAPLVLKVSE”, the protein production entry was “not failed”.

“MTITNSKAEAWELIGNQFWTIGRVAARPSDRENDIFLENIVPGSTVAVIGASTRFLIEKALERGASVTVFDFSQRMCDDLAEALADRCVTIDLLDITAEIPKELAGHFDFVLNDRLINRFTTEEARRACLGMLSLVGSGTVRASVKLGFYDIDLKLIEYGEQSGTLAKFFDPSDKTFHFREAGDVLDRALVPHGLIDKPTLLEWYRRRGKETRFDDEDVRALLSHDVVNARGYVTLEKAVELPDAPNTMLYQFSRRAG”: the protein production entry is “not failed”.
